B1: Mothers against decapentaplegic homolog 4 (Homo sapiens), Q13485 (parent)
chain: MDNMSITNTPTSNDACLSIVHSLMCHRQGGESETFAKRAIESLVKKLKEKKDELDSLITAITTNGAHPSKCVTIQRTLDGRLQVAGRKGFPHVIYARLWRWPDLHKNELKHVKYCQYAFDLKCDSVCVNPYHYERVVSPGIDLSGLTLQSNAPSSMMVKDEYVHDFEGQPSLSTEGHSIQTIQHPPSNRASTETYSTPALLAPSESNATSTANFPNIPVASTSQPASILGGSHSEGLLQIASGPQPGQQQNGFTGQPATYHHNSTTTWTGSRTAPYTPNLPHHQNGHLQHHPPMPPHPGHYWPVHNELAFQPPISNHPAPEYWCSIAYFEMDVQVGETFKVPSSCPIVTVDGYVDPSGGDRFCLGQLSNVHRTEAIERARLHIGKGVQLECKGEGDVWVRCLSDHAVFVQSYYLDREAGRAPGDAVHKIYPSAYIKVFDLRQCHRQMQQQAATAQAAAAAQAAAVAGNIPGPGSVGGIAPAISLSAAAGIGVDDLRRLCILRMSFVKGWGPDYPRQSIKETPCWIEIHLHRALQLLDEVLHTMPIADPQPLD

Variants of: B1
Conditions: with tshr_human TSHR

Variant	effect of a mutation on the interaction
G386D	increasing interaction strength

Variants of: B1
Conditions: with smad2_human SMAD2, Q15796
Sequence of smad2_human SMAD2, Q15796 (Q15796 whole entry): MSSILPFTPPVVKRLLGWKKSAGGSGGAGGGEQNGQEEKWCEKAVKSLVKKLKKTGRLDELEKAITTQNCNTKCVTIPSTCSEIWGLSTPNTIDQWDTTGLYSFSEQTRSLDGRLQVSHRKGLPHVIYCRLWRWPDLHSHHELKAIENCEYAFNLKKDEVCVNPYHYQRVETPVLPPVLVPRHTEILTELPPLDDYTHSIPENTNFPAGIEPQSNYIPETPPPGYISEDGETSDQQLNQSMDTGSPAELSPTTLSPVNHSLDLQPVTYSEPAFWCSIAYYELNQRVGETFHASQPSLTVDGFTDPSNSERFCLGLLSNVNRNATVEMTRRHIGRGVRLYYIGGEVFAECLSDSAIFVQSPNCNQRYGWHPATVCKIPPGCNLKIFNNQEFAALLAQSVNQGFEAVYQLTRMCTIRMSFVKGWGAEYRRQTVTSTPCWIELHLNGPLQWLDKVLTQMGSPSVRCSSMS

Variant	effect of a mutation on the interaction
G386D	disrupting interaction strength

Variants of: B1
Conditions: with smad3_human SMAD3, P84022
Sequence of smad3_human SMAD3, P84022 (P84022 whole entry, looked up): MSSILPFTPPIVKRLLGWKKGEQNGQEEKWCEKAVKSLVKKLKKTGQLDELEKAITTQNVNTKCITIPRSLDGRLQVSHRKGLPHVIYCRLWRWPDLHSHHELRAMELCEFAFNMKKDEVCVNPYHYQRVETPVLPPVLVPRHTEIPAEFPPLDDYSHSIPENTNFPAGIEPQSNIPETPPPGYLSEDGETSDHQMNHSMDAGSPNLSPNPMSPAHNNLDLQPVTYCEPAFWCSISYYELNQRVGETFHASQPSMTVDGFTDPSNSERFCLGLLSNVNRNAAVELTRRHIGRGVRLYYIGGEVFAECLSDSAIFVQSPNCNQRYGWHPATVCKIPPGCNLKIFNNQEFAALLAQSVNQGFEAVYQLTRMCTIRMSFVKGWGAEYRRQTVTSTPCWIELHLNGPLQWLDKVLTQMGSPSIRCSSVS

Variant	effect of a mutation on the interaction
G386D	decreasing interaction strength

Variants of: B1
Conditions: with cdk6_human CDK6, Q00534
Sequence of cdk6_human CDK6, Q00534 (Q00534 whole entry): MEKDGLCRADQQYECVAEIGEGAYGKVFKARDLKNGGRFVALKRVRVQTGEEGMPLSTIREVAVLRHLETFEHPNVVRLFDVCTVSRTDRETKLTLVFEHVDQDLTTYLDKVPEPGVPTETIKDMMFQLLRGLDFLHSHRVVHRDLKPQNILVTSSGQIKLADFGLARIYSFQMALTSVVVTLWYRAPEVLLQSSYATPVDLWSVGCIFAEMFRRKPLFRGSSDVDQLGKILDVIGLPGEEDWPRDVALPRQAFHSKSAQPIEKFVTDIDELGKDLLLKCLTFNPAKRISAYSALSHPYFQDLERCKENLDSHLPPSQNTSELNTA

Variant	effect of a mutation on the interaction
G386D	decreasing interaction strength

Variants of: B1
Conditions: with ccnd1_human CCND1, P24385
Sequence of ccnd1_human CCND1, P24385 (P24385 whole entry): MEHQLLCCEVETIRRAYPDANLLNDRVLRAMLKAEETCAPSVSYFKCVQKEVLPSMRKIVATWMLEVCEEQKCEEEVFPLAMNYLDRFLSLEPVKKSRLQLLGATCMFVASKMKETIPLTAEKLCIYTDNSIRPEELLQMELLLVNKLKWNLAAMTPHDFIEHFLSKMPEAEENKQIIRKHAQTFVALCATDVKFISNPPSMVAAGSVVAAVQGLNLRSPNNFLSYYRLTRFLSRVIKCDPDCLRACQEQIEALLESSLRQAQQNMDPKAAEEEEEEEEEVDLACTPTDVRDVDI

Variant	effect of a mutation on the interaction
G386D	decreasing interaction strength

Variants of: B1
Conditions: with akt1_human AKT1, P31749
Sequence of akt1_human AKT1, P31749 (P31749 whole entry): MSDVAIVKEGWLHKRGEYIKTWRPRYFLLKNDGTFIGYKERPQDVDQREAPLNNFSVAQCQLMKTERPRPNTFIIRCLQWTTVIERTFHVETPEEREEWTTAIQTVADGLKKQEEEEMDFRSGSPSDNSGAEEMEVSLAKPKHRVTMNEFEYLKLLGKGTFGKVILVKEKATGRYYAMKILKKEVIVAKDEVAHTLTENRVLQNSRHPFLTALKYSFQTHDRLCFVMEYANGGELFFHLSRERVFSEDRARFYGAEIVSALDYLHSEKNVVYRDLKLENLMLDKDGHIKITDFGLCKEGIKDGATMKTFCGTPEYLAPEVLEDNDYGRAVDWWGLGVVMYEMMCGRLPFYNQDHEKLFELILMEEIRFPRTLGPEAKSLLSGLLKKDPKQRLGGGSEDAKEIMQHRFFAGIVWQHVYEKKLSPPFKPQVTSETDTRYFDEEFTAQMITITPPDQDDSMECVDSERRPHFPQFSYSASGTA

Variant	effect of a mutation on the interaction
G386D	decreasing interaction strength

Variants of: B1
Conditions: with pk3cb_human PIK3CB

Variant	effect of a mutation on the interaction
G386D	decreasing interaction strength

Variants of: B1
Conditions: with jak1_human JAK1, P23458
Sequence of jak1_human JAK1, P23458 (P23458 whole entry): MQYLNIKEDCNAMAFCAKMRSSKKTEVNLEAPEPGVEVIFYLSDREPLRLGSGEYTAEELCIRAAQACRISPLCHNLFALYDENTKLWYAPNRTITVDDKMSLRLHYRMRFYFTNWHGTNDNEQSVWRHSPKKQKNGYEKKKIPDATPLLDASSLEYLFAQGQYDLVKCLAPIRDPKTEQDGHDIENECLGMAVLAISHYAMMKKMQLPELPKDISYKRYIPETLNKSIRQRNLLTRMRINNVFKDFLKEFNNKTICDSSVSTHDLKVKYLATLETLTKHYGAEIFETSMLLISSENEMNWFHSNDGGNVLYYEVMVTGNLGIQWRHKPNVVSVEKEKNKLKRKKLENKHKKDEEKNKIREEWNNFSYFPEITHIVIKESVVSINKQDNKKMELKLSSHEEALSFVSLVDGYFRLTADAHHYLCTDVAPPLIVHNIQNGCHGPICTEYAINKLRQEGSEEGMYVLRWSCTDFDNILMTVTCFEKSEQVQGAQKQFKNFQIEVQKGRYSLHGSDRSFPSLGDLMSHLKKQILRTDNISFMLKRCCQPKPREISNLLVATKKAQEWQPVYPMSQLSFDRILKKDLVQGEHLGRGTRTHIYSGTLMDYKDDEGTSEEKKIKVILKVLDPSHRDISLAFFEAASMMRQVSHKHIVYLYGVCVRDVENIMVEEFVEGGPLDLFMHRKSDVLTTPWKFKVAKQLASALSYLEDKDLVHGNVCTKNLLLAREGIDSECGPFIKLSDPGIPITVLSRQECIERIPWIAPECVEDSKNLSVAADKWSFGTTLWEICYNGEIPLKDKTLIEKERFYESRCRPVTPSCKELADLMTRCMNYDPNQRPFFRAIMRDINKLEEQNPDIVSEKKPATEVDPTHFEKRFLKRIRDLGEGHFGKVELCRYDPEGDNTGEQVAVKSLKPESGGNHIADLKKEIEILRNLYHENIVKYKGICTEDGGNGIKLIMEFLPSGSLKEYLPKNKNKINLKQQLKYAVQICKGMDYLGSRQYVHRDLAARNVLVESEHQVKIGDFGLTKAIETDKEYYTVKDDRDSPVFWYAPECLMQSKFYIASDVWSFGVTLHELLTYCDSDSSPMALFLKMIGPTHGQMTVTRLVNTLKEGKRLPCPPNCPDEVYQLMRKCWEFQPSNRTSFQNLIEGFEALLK

Variant	effect of a mutation on the interaction
G386D	decreasing interaction strength

Variants of: B1
Conditions: with jak3_human JAK3, P52333
Sequence of jak3_human JAK3, P52333 (P52333 whole entry): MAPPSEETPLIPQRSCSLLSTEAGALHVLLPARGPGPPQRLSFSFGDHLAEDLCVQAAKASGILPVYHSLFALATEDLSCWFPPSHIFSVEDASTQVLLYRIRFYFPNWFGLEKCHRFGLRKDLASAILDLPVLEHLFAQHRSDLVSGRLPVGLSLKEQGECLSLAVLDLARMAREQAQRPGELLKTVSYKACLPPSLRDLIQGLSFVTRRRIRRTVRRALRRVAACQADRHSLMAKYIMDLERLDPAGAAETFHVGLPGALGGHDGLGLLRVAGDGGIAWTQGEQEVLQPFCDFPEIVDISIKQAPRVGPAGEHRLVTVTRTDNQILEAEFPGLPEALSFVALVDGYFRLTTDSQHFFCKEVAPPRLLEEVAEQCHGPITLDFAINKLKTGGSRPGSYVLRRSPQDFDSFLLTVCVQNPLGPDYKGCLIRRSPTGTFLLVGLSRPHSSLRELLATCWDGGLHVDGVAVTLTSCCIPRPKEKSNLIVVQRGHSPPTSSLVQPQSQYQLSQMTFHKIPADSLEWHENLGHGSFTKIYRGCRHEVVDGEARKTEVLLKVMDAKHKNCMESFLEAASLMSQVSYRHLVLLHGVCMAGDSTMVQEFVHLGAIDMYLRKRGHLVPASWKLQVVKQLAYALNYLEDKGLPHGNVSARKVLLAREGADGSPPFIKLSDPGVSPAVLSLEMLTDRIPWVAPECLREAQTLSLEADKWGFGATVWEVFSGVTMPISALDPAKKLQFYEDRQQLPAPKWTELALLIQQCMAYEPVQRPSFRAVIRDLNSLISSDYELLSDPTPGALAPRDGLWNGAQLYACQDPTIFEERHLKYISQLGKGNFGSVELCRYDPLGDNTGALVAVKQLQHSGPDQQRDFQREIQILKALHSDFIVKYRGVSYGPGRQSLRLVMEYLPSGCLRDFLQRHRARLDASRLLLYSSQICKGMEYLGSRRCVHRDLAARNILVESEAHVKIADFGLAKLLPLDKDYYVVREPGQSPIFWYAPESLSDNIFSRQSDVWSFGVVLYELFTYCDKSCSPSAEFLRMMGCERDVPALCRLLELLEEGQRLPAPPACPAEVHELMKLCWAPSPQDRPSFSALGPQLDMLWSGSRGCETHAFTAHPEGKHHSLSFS

Variant	effect of a mutation on the interaction
G386D	decreasing interaction strength

Variants of: B1
Conditions: with baba2_human BABAM2, Q9NXR7
Sequence of baba2_human BABAM2, Q9NXR7 (Q9NXR7 whole entry): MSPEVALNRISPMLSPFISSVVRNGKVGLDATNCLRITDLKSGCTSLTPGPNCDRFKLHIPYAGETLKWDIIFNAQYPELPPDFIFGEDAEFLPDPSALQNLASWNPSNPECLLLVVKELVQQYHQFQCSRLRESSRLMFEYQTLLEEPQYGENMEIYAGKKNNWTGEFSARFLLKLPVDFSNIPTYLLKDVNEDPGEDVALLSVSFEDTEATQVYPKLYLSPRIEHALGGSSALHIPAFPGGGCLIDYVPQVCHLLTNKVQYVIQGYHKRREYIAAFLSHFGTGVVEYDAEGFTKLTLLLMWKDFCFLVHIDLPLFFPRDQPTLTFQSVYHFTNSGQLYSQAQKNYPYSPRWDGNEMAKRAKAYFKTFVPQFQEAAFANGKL

Variant	effect of a mutation on the interaction
G386D	increasing interaction strength

Reference: IntAct's records for PubMed 35512704
